Experiments:
[1] = molecular target: T1, human BCMA (B-cell maturation antigen) (human, UniProt Q02223 1-184); assay: cell-based or functional assay
T1 sequence (looked up): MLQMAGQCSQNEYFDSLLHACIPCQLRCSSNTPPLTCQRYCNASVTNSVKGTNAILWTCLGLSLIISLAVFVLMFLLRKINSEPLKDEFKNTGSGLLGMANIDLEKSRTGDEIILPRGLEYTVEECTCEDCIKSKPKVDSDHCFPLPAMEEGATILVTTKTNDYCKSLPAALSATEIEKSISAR

[2] = molecular target: T1, human BCMA (B-cell maturation antigen); assay: cell-based or functional assay; remark: listed apart in the source

B1: BCMA×CD3 bispecific antibody BU76 (bispecific antibody, human IgG1, kappa, N297A)
heavy: QIQLVQSGPELKKPGETVKISCKASGYTFTDYSINWVKRAPGKGLKWMGWINTETREPAYAYDFRGRFAFSLETSASTAYLQINNLKYEDTATYFCALDYSYAMDYWGQGTSVTVSSASTKGPSVFPLAPSSKSTSGGTAALGCLVKDYFPEPVTVSWNSGALTSGVHTFPAVLQSSGLYSLSSVVTVPSSSLGTQTYICNVNHKPSNTKVDKRVEPKSCDKTHTCPPCPAPELLGGPSVFLFPPKPKDTLMISRTPEVTCVVVDVSHEDPEVKFNWYVDGVEVHNAKTKPREEQYASTYRVVSVLTVLHQDWLNGKEYKCKVSNKALPAPIEKTISKAKGQPREPQVCTLPPSREEMTKNQVSLSCAVKGFYPSDIAVEWESNGQPENNYKTTPPVLDSDGSFFLVSKLTVDKSRWQQGNVFSCSVMHEALHNHYTQKSLSLSPGK
light: DIVLTQSPASLAMSLGKRATISCRASESVSVIGAHLIHWYQQKPGQPPKLLIYLASNLETGVPARFSGSGSGTDFTLTIDPVEEDDVAIYSCLQSRIFPRTFGGGTKLEIKRTVAAPSVFIFPPSDEQLKSGTASVVCLLNNFYPREAKVQWKVDNALQSGNSQESVTEQDSKDSTYSLSSTLTLSKADYEKHKVYACEVTHQGLSSPVTKSFNRGEC
chain: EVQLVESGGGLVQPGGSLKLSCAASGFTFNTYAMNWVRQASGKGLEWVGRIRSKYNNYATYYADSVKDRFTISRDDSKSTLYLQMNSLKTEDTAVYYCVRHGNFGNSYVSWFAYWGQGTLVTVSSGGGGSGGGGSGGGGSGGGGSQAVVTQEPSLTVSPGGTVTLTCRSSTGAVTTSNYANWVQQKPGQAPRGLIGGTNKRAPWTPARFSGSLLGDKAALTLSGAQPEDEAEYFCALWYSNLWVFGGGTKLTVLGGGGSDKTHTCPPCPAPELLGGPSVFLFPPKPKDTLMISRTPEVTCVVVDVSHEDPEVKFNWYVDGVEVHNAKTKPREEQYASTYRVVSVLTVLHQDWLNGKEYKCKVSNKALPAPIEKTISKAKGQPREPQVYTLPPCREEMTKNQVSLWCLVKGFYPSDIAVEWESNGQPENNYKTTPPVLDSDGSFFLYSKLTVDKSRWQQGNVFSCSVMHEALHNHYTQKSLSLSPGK
fold enhancement of RTCC EC50 upon GSI treatment [1]: > 100 fold

B2: Anti-BCMA J6M0 hIgG DLE CGW117 (MMAE) conjugate (antibody, V domains shown)
VH: QVQLVQSGAEVKKPGSSVKVSCKASGGTFSNYWMHWVRQAPGQGLEWMGATYRGHSDTYYNQKFKGRVTITADKSTSTAYMELSSLRSEDTAVYYCARGAIYDGYDVLDNWGQGTLVTVSS
VL: DIQMTQSPSSLSASVGDRVTITCSASQDISNYLNWYQQKPGKAPKLLIYYTSNLHSGVPSRFSGSGSGTDFTLTISSLQPEDFATYYCQQYRKLPWTFGQGTKLEIKR
modifications: drug conjugate CGW117 (MMAE); attachment site not stated
Fold GSI Enhancement, ADC killing assay, MM1S cells [2]: 17.4 fold
Fold GSI Enhancement, ADC killing assay, U266B1 cells [2]: 23.1 fold
IC50, ADC killing assay, MM1S cells, No GSI [2]: 19.4 nM
IC50, ADC killing assay, MM1S cells, with GSI LY-411575 [2]: 1.12 nM
IC50, ADC killing assay, U266B1 cells, No GSI [2]: 6.04 nM
IC50, ADC killing assay, U266B1 cells, with GSI LY-411575 [2]: 0.26 nM

B3: Pfizer_CD3_H2B4_RRRR-Pfizer_BCMA_comboC29_EEEE hIgG2a_ASS (bispecific antibody)
heavy 1: EVQLLESGGGLVQPGGSLRLSCAASGFTFSSYPMSWVRQAPGKGLEWVSAIGGSGGSLPYADSVKGRFTISRDNSKNTLYLQMNSLRAEDTAVYYCARYWPMDIWGQGTLVTVSSASTKGPSVFPLAPCSRSTSESTAALGCLVKDYFPEPVTVSWNSGALTSGVHTFPAVLQSSGLYSLSSVVTVPSSNFGTQTYTCNVDHKPSNTKVDKTVERKCEVECPECPAPPVAGPSVFLFPPKPKDTLMISRTPEVTCVVVAVSHEDPEVQFNWYVDGVEVHNAKTKPREEQFNSTFRVVSVLTVVHQDWLNGKEYKCKVSNKGLPSSIEKTISKTKGQPREPQVYTLPPSREEMTKNQVSLTCEVKGFYPSDISVEWESNGQPENNYKTTPPMLDSDGSFFLYSKLTVDKSRWQQGNVFSCSVMHEALHNHYTQKSLSLSPGK
light 1: EIVLTQSPGTLSLSPGERATLSCRASQSVSSSYLAWYQQKPGQAPRLLMYDASIRATGIPDRFSGSGSGTDFTLTISRLEPEDFAVYYCQQYQSWPLTFGQGTKVEIKRTVAAPSVFIFPPSDEQLKSGTASVVCLLNNFYPREAKVQWKVDNALQSGNSQESVTEQDSKDSTYSLSSTLTLSKADYEKHKVYACEVTHQGLSSPVTKSFNRGEC
heavy 2: EVQLVESGGGLVQPGGSLRLSCAASGFTFSDYYMTWVRQAPGKGLEWVAFIRNRARGYTSDHNASVKGRFTISRDNAKNSLYLQMNSLRAEDTAVYYCARDRPSYYVLDYWGQGTTVTVSSASTKGPSVFPLAPCSRSTSESTAALGCLVKDYFPEPVTVSWNSGALTSGVHTFPAVLQSSGLYSLSSVVTVPSSNFGTQTYTCNVDHKPSNTKVDKTVERKCRVRCPRCPAPPVAGPSVFLFPPKPKDTLMISRTPEVTCVVVAVSHEDPEVQFNWYVDGVEVHNAKTKPREEQFNSTFRVVSVLTVVHQDWLNGKEYKCKVSNKGLPSSIEKTISKTKGQPREPQVYTLPPSREEMTKNQVSLTCLVKGFYPSDISVEWESNGQPENNYKTTPPMLDSDGSFFLYSRLTVDKSRWQQGNVFSCSVMHEALHNHYTQKSLSLSPGK
light 2: not shown
Fold GSI Enhancement, RTCC assay, KMS11 target cells [2]: 48.3 fold
IC50, RTCC assay, KMS11 target cells, No GSI [2]: 0.097 nM
IC50, RTCC assay, KMS11 target cells, with GSI LY-450139 [2]: 0.002 nM
IC50, RTCC assay, KMS11 target cells, with GSI PF-3084014 [2]: 0.002 nM
IC50, RTCC assay, KMS11 target cells, with GSI PF-5212362 [2]: 0.002 nM

B4: BCMA×CD3 bispecific antibody EE11 (bispecific antibody)
chain 1: not shown
chain 2: EVQLVESGGGLVQPGGSLKLSCAASGFTFNTYAMNWVRQASGKGLEWVGRIRSKYNNYATYYADSVKDRFTISRDDSKSTLYLQMNSLKTEDTAVYYCVRHGNFGNSYVSWFAYWGQGTLVTVSSGGGGSGGGGSGGGGSGGGGSQAVVTQEPSLTVSPGGTVTLTCRSSTGAVTTSNYANWVQQKPGQAPRGLIGGTNKRAPWTPARFSGSLLGDKAALTLSGAQPEDEAEYFCALWYSNLWVFGGGTKLTVLGGGGSDKTHTCPPCPAPELLGGPSVFLFPPKPKDTLMISRTPEVTCVVVAVSHEDPEVKFNWYVDGVEVHNAKTKPREEQYNSTYRVVSVLTVLHQDWLNGKEYKCKVSNKALAAPIEKTISKAKGQPREPQVCTLPPSRDELTKNQVSLSCAVKGFYPSDIAVEWESNGQPENNYKTTPPVLDSDGSFFLVSKLTVDKSRWQQGNVFSCSVMHEALHNHYTQKSLSLSPGK
fold enhancement of RTCC EC50 upon GSI treatment [1]: ≥ 10 fold

B5: BCMA×CD3 bispecific antibody EM90 (bispecific antibody)
light: QAVVTQEPSLTVSPGGTVTLTCGSSTGAVTTSNYANWVQEKPGQAFRGLIGGTNKRAPGTPARFSGSLLGGKAALTLSGAQPEDEAEYYCALWYSNLWVFGGGTKLTVLGQPKAAPSVTLFPPSSEELQANKATLVCLISDFYPGAVTVAWKADSSPVKAGVETTTPSKQSNNKYAASSYLSLTPEQWKSHRSYSCQVTHEGSTVEKTVAPTECS
heavy 1: not shown
heavy 2: EVQLVESGGGLVKPGGSLRLSCAASGFTFSNSGMIWVRQAPGKGLEWVGHIRSKTDGGTTDYAAPVKGRFTISRDDSKNTLYLQMNSLKTEDTAVYYCTTGGSGSFDYWGQGTLVTVSSASTKGPSVFPLAPSSKSTSGGTAALGCLVKDYFPEPVTVSWNSGALTSGVHTFPAVLQSSGLYSLSSVVTVPSSSLGTQTYICNVNHKPSNTKVDKRVEPKSCDKTHTCPPCPAPEAAGGPSVFLFPPKPKDTLMISRTPEVTCVVVDVSHEDPEVKFNWYVDGVEVHNAKTKPREEQYNSTYRVVSVLTVLHQDWLNGKEYKCKVSNKALPAPIEKTISKAKGQPREPQVCTLPPSREEMTKNQVSLSCAVKGFYPSDIAVEWESNGQPENNYKTTPPVLDSDGSFFLVSKLTVDKSRWQQGNVFSCSVMHEALHNHYTQKSLSLSPGK
fold enhancement of RTCC EC50 upon GSI treatment [1]: > 40 fold

B6: BCMA×CD3 bispecific antibody ER26 (bispecific antibody, human IgG1, kappa, N297A)
heavy: QVQLVQSGAEVKKPGSSVKVSCKASGGTFSNYWMHWVRQAPGQGLEWMGATYRGHSDTYYNQKFKGRVTITADKSTSTAYMELSSLRSEDTAVYYCARGAIYNGYDVLDNWGQGTLVTVSSASTKGPSVFPLAPSSKSTSGGTAALGCLVKDYFPEPVTVSWNSGALTSGVHTFPAVLQSSGLYSLSSVVTVPSSSLGTQTYICNVNHKPSNTKVDKRVEPKSCDKTHTCPPCPAPELLGGPSVFLFPPKPKDTLMISRTPEVTCVVVAVSHEDPEVKFNWYVDGVEVHNAKTKPREEQYNSTYRVVSVLTVLHQDWLNGKEYKCKVSNKALAAPIEKTISKAKGQPREPQVCTLPPSREEMTKNQVSLSCAVKGFYPSDIAVEWESNGQPENNYKTTPPVLDSDGSFFLVSKLTVDKSRWQQGNVFSCSVMHEALHNHYTQKSLSLSPGK
light: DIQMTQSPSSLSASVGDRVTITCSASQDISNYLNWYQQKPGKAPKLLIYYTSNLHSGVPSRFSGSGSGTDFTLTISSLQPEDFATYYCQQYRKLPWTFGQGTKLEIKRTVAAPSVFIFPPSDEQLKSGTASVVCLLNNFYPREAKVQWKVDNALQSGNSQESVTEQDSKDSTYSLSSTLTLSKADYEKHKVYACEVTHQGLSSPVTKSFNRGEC
chain: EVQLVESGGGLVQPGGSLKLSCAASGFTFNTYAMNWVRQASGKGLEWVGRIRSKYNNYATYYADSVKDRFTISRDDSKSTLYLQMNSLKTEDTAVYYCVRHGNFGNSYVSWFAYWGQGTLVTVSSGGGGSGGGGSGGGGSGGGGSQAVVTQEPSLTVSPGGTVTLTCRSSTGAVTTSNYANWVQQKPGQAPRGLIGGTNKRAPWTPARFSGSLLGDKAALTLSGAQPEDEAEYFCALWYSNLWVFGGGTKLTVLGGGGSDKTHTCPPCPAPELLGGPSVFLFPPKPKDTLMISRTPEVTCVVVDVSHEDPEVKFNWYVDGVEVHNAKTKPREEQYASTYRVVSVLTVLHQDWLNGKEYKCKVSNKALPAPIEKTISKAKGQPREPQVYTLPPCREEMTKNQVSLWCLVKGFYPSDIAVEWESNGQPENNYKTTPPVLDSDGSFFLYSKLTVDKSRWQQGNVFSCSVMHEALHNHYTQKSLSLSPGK
fold enhancement of RTCC EC50 upon GSI treatment [1]: > 100 fold

From US20200179511A1 (Novartis, published 2020)
